Experimental data published in US20110038869A1 (Genmab, published 2011).
Changes are numbered by the printed parent chain.

T1: biotinylated CD32bECDHis (human, UniProt P31994 43-223, limits assumed, biotinylated (sites not given))
T1 sequence (looked up): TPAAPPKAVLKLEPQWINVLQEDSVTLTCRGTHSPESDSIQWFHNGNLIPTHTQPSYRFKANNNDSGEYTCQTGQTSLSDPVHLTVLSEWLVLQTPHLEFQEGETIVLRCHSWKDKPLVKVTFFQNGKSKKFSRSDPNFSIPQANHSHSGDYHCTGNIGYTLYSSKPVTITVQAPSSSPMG

T2: CD32bECDHis (human, UniProt P31994 43-223, limits assumed)
T2 construct: Produced in HEK-293F cells; also called extracellular domain of CD32b with C-terminal His tag; soluble CD32b
T2 sequence (looked up): T1 sequence (looked up)

B1: Antibody 024 (antibody, V domains shown)
VH: QVQLVQSGAEVKKPGASVKVSCKASGYTFTSYGLSWVRQAPGQGLEWMGWISPYNGNTHYAQKLQGRVTMTTDTSTSTAYMDLRSLRSDDTAVYYCARDSAAHGMDVWGQGTTVTVSS
VL: DIQMTQSPSSLSASVGDRVTITCRASQGISSWLAWYQQKPEKAPKSLIYAASSLQSGVPSRFSGSRSGTDFTLTISSLQPEDFATYYCQQYNSYPYTFGQGTKLEIKR
notes: also called HuMab 024
B2: Antibody 026 (antibody, V domains shown)
VH: B1 VH with P53A, H59N
VL: B1 VL
notes: Human antibody; also called HuMab 026
B3: Antibody 028 (antibody, V domains shown)
VH: B1 VH with L4V, A24T, L34I, P53A, H59K, V68L, S77T, D82E, T115S
VL: B1 VL
notes: List 1 gives no VL for antibody 028; The VL is therefore uncertain; also called HuMab 028
B4: Antibody 020 (antibody, V domains shown)
VH: B1 VH with A9G, A24T, L34I, P53A, H59K, V68L, S77T, D82E
VL: B1 VL with S63R, R66G
notes: also called HuMab 020
B5: Antibody 022 (antibody, V domains shown)
VH: B1 VH with Y80D, D99A
VL: B1 VL
notes: also called HuMab 022
B6: Antibody 038 (antibody, human IgG1, V domains shown)
VH: QVQLVESGGGVVQPGRSLRLSCAASGFTFSTYGMHWVRQAPGKGLEWVAVISHDGSDKYYADSVKGRFTISRDNSKNTLYLQMNSLRAEDTAVYYCARDQSIIETFDYWGQGTLVTVSS
VL: EIVLTQSPATLSLSPGERATLSCRASQSVSSYLAWYQQKPGQAPRLLIYDASNRATGIPARFSGSGSGTDFTLTISSLEPEDFAVYYCQQRSNWGFTFGPGTKVDIKR
notes: Human antibody; also called HuMab 038

Key:
biotinylated CD32bECDHis [1] = target: T1, biotinylated CD32bECDHis; assay: competition ELISA, competitor 034
Description: (§1) ELISA wells were coated overnight at 4° C. with anti-CD32b HuMabs serially diluted in PBS. The ELISA wells were washed with PBS, blocked for one hour at room temperature with 2% (v/v) chicken serum (Gibco, Paisley, Scotland) in PBS and washed again with PBS. Subsequently, the immobilized antibodies were incubated with biotinylated CD32bECDHis serially diluted in PBSTC. After washing with PBS/Tween, bound biotinylated CD32bECDHis was incubated with Streptavidin-poly-HRP (Sanquin, Amsterdam, The Netherlands) for 1 hr at RT an the reaction was developed as described supra.
(§2) To this end, ELISA wells coated with anti-CD32b HuMabs were incubated in the presence of an excess of CD32b-specific antibody and the predetermined concentration of biotinylated CD32bECDHis in fluid phase. The reaction was developed as described.

biotinylated CD32bECDHis [2] = target: T1, biotinylated CD32bECDHis; assay: competition ELISA, competitor 020
Description: as §1, §2

biotinylated CD32bECDHis [3] = target: T1, biotinylated CD32bECDHis; assay: competition ELISA, competitor 038
Description: as §1, §2

biotinylated CD32bECDHis [4] = target: T1, biotinylated CD32bECDHis; assay: competition ELISA, competitor 028
Description: as §1, §2

biotinylated CD32bECDHis [5] = target: T1, biotinylated CD32bECDHis; assay: competition ELISA, competitor 024
Description: as §1, §2

biotinylated CD32bECDHis [6] = target: T1, biotinylated CD32bECDHis; assay: competition ELISA, competitor 016
Description: as §1, §2

biotinylated CD32bECDHis [7] = target: T1, biotinylated CD32bECDHis; assay: competition ELISA, competitor 063
Description: as §1, §2

biotinylated CD32bECDHis [8] = target: T1, biotinylated CD32bECDHis; assay: competition ELISA, competitor 053
Description: as §1, §2

biotinylated CD32bECDHis [9] = target: T1, biotinylated CD32bECDHis; assay: competition ELISA, competitor 2B6
Description: as §1, §2

CD32bECDHis [10] = target: T2, CD32bECDHis; assay: ELISA on coated CD32bECDHis
Description: The specificity of the obtained anti-CD32b HuMabs was evaluated by ELISA. ELISA plates (Microlon; Greiner Bio-One) were coated overnight at 4° C. with 2 μg/ml of CD32aECDHis and CD32bECDHis in PBS, pH 7.4. Coated ELISA plates were washed with PBS, blocked for one hour at room temperature with 2% (v/v) chicken serum (Gibco, Paisley, Scotland) in PBS and washed again with PBS. Subsequently, HuMabs, serially diluted in PBSTC (PBS supplemented with 2% (v/v) chicken serum and 0.05% (v/v) Tween-20), were incubated for 1 hr at RT under shaking conditions (300 rpm). Bound HuMabs were detected using HRP-conjugated goat-anti-human IgG antibodies (Jackson ImmunoResearch Europe) diluted 1:10,000 in PBSTC, which were incubated for 1 hr at RT under shaking conditions (300 rpm). […] Binding curves were analyzed using non-linear regression (sigmoidal dose-response with variable slope) using GraphPad Prism V4.03 software.

biotinylated CD32bECDHis [11] = target: T1, biotinylated CD32bECDHis; assay: competition ELISA, competitor 022
Description: as §1, §2

CD32bECDHis [12] = target: T2, CD32bECDHis; assay: TR-FRET competition against HuMab-KLH-AlexaFluor 647
From the text: To study the interaction of anti-CD32b HuMabs with CD32b and CD32a in more detail TR-FRET technology was applied. To this end, CD32bECDHis and CD32aECDHis were labeled with a fluorescent donor molecule directed against the histidine tag (Anti-6×His Europium3+, PerkinElmer, Boston Mass.).
Briefly, all dilutions were made in 0.5× Lance detection buffer (PerkinElmer, Boston Mass.) supplemented with 0.2% BSA (obtained via dilution of 7.5% BSA Stabilizer solution, cat: CR84-100, PerkinElmer) and 0.03% (v/v) Tween-20 (Riedel de Haen, Seelze, Germany). CD32bECDHis and CD32aECDHis were diluted to 0.5 μg/ml. […] Anti-6×His Europium3+ (PerkinElmer, Boston Mass.) was diluted to 0.15 μg/ml. A 4-fold serial dilution of the tested HuMab antibody was made in a 96 wells non-binding plate (cat. 650261, Greiner Bio-one, Frickenhausen, Germany), ranging from 10 μg/ml-0.04 ng/ml. […] After overnight incubation at 4° C. in the dark, fluorescence was measured using an EnVision 2101 Multilabel reader (PerkinElmer, Boston, Mass.) applying the following settings; Lance/Delfia dual mirror, emission filter 615-665 nm, excitation filter 320 nm, delay time 60 μs, window 100 μs, 100 flashes, 2000 μs per cycle and bidirectional row-by-row reading. Binding curves were analyzed using non-linear regression (sigmoidal dose-response with variable slope) using GraphPad Prism V4.03 software (GraphPad Software, San Diego, Calif., USA).

Row | Binder | % residual binding (biotinylated CD32bECDHis [1]) | % residual binding (biotinylated CD32bECDHis [2]) | % residual binding (biotinylated CD32bECDHis [3]) | % residual binding (biotinylated CD32bECDHis [4]) | % residual binding (biotinylated CD32bECDHis [5]) | % residual binding (biotinylated CD32bECDHis [6]) | % residual binding (biotinylated CD32bECDHis [7]) | % residual binding (biotinylated CD32bECDHis [8]) | % residual binding (biotinylated CD32bECDHis [9]) | EC50 (CD32bECDHis [10]) | % residual binding (biotinylated CD32bECDHis [11]) | % of maximal Fab-mediated inhibition (CD32bECDHis [12]) | IC50 (CD32bECDHis [12])
1 | B1 | 6% | 43% | 103% | 34% | 15% | 101% | 68% | 69% | 98% | 0.75 nM | 17% | ~70% | 0.45 nM
2 | B2 | 0% | 4% | 127% | 3% | 1% | 104% | 27% | 29% | 146% | 0.51 nM | 1% | ~70% | 0.3 nM
3 | B3 | 2% | 24% | 121% | 15% | 7% | 109% | 45% | 51% | 125% | 0.48 nM | 6% | ~70% | 0.35 nM
4 | B4 | 1% | 20% | 120% | 13% | 4% | 105% | 42% | 42% | 126% | 0.49 nM | 6% | ~70% | 0.35 nM
5 | B5 | 7% | 35% | 115% | 27% | 13% | 102% | 63% | 64% | 96% | 0.75 nM | 14% | ~70% | 0.44 nM
6 | B6 | 354% | 310% | 17% | 317% | 351% | 105% | 283% | 333% | 5% | 0.62 nM | 350% |  | 0.37 nM
